{"source": "paper PMC12087662", "target": "ATP6V1D (UniProt Q9Y5K8)", "assay": "in vitro binding, anti-Flag pull-down", "conditions": "reference: wild-type ATP6V1B2-Flag; sites Y68"}
{"substance": "ATP6V1B2 (from UniProt P21281) ATP6V1B2(Y68F)-Flag", "values": [{"measurement": "binding against the reference", "value": "weaker"}]}
